Target: anti-GASP-1 polyclonal antibody raised against a GASP-1 fragment consisting of … (SEQ ID NO: 2)
Assay: competitive ELISA: free peptide against plate-bound BSA-GASP-1 conjugate for the biotinylated antibody

EEASPEAVAGVGFESK [GASP-1 peptide … (SEQ ID NO: 2)]
difference in OD values between zero and 0.3 ng/ml competing peptide: 1.1 OD (450 nm)

— patent US20200225235A1
